For eight molecules, Ki results are on record in patent US7132248 (dated 2006).

The target in experiment [1] is T1, rat GALR2 (rat).
T1 chain: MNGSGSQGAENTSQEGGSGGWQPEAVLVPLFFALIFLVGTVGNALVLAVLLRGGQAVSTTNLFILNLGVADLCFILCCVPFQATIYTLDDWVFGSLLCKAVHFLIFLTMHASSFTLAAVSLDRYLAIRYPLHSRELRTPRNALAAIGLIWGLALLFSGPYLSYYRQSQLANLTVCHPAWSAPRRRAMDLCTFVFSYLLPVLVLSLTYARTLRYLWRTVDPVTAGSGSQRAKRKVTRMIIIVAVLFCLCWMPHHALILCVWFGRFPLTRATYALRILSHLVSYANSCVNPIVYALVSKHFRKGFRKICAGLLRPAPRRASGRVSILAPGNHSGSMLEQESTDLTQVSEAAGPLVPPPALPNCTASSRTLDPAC
Briefly: competition, radioligand CHO.

The next experiment deals with T2, human GALR2 (human).
T2 chain: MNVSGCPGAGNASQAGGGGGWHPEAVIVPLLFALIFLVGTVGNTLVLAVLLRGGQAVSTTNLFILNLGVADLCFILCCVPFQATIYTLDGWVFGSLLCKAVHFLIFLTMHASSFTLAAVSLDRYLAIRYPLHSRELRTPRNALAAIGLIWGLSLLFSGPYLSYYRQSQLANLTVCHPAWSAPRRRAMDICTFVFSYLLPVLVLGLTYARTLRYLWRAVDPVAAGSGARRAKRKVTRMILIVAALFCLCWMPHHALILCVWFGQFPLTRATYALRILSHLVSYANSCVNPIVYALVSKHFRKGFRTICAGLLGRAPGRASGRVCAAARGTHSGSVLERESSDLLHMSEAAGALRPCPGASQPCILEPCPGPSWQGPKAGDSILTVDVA
Briefly: competition, radioligand COS-7.

Experiment [2] addresses T1, rat GALR2. Briefly: competition, radioligand COS-7.
Experiment [3] deals with T1, rat GALR2. Briefly: competition, radioligand COS-7.
The target of the next experiment is T3, rat GALR1 (rat, UniProt Q62805).
T3 chain: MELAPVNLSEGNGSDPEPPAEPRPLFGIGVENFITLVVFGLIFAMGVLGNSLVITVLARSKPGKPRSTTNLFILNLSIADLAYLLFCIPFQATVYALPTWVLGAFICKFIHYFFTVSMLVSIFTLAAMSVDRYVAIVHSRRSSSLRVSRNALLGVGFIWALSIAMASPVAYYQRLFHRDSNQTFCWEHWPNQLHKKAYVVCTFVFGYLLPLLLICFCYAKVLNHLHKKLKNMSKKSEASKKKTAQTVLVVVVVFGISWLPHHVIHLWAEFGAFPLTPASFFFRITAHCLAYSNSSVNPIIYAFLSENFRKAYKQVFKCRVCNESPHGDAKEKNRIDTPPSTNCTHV
Briefly: competition, radioligand COS-7.

Bounds are passed on as bounds.

As for LASLLLASALSATLGLGSPVK [porcine galanin 9-29], the Ki with rat GALR2 [1] is > 1000 nM. Take MPRGCALLLASLLLAS [galanin (1-16)]: the results for the Ki with human GALR2 and with rat GALR2 [2] were 15 nM and 1.74 nM, respectively. For MARGSVILLAWLLLVATLSATLGLGMPTK [rat galanin], the Ki with human GALR2 was 1 nM; with rat GALR2 [3], 0.52 nM. MPRGCALLLASLLLASALSATLGLGSPVK [porcine galanin (1-29)]: the Ki in the experiment with human GALR2 is 0.72 nM; in the experiment with rat GALR1 it was 0.457 nM.

With MPRGCALLL [porcine galanin 1-9], in the experiment with rat GALR2 [1], the Ki was > 1000 nM.

For the molecule RGCALLLASLLLASALSATLGLGSPVK [porcine galanin (3-29)], the Ki with rat GALR2 [2] is > 100000 nM. Regarding ALSATLGLGSPVK [porcine galanin 17-29], the Ki in the experiment with rat GALR2 [1] is > 1000 nM.

B1: human galanin (protein)
chain: KRGWTLNSAGYLLGPHAVGNHRSFSDKNGLTSKRELRPEDDMKPGSFDRSIPENNIMRTIIEFLSFLHLKEAGALDRLLDLPAAASSEDIERS
On to B1, for which, in the experiment with rat GALR2 [1], the Ki came to 1.2 nM.
